Experimental data reported in publication PMC3773174.

Biological target: Sso1pHT (yeast t-SNARE Sso1p without the Habc domain), labelled with Cy5 (yeast)
Test: FRET or BRET

**Q.** How did the FRET efficiency of the single protein-protein complex (H) turn out when “Snc2p (yeast v-SNARE), labelled with Cy3 (from UniProt P33328 1-115) (natural protein)” was run?
**A.** 0.96
